Experimental data: IntAct's records for PubMed 22791719

B1: Phospholipid-transporting ATPase accessory subunit LEM3 (Saccharomyces cerevisiae), P42838 (parent)
chain: MVNFDLGQVGEVFRRKDKGAIVSGDNPEEEEDVDASEFEEDEVKPVRTKNRRPKEDAFTQQRLAAINPVLTPRTVLPLYLLIAVVFVIVGGCILAQNSKVDEVTIYYQDCMTNATSSWSDIPSEHWQFVFHKYKTYNTAPQWRFVDDESDDFTKQRGTCQIRFTTPSDMKNNVYLNYVLEKFAANHRRYVLSFSEDQIRGEDASYETVHDATGINCKPLSKNADGKIYYPCGLIANSMFNDTFPLQLTNVGDTSNNYSLTNKGINWESDKKRYKKTKYNYTQIAPPPYWEKMYPDGYNETNIPDIQDWEEFQNWMRPGAFDKITKLIRINKNDTLPAGEYQLDIGLHWPVLEFNGKKGIYLTHGSHLGGRNPFLGIVYLIGGCICAAMALILLTFWLFGGRKIADASSLSWNMK

Variants of: B1
Conditions: with atc5_yeast DNF1, P32660
Sequence of atc5_yeast DNF1, P32660 (P32660 whole entry): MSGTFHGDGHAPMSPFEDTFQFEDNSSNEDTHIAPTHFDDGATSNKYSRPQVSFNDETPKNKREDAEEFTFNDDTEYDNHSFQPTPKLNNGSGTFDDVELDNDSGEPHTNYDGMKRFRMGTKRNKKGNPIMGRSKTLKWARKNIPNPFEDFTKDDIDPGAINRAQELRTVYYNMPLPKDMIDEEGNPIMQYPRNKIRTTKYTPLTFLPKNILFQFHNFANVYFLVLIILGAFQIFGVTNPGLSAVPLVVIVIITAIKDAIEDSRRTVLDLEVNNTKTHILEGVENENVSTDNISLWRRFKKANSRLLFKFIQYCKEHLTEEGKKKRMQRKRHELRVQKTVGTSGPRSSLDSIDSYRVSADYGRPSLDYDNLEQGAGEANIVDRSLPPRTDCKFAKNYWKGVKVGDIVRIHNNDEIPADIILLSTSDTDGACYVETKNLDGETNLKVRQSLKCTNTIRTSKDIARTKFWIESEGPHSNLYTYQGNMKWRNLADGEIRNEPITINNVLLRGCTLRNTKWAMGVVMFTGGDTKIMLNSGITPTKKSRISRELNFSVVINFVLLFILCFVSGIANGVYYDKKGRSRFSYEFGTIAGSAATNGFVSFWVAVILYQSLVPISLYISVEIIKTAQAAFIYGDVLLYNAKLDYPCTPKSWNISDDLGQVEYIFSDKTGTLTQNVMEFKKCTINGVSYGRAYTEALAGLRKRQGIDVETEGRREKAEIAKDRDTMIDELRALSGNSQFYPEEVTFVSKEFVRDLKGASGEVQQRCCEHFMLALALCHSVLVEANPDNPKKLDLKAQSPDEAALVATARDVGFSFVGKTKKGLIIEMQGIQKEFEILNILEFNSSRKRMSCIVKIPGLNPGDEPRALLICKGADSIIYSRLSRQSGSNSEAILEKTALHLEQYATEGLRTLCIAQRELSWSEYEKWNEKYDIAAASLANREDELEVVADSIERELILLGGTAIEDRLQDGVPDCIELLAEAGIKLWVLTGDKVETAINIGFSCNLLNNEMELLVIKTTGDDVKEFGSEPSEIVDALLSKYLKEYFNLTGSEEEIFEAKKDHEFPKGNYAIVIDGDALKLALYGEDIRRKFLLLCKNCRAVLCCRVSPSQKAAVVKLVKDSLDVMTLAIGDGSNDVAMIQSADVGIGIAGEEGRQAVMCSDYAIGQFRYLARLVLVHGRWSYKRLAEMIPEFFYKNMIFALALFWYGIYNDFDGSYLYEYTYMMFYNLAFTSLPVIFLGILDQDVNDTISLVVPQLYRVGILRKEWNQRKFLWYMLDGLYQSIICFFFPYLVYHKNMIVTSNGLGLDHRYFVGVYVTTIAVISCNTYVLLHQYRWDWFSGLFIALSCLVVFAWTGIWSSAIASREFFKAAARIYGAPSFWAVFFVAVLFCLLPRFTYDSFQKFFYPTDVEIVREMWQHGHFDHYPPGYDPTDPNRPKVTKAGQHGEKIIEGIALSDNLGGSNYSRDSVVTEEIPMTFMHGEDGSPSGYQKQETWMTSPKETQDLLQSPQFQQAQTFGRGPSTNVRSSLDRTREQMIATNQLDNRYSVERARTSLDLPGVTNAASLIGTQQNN

| Variant | effect of a mutation on the interaction |
| --- | --- |
| MVNFDLGQVGEVFRRKDKGAIVSGDNPEEEEDVDASEFEEDEVKPVRTKNRRPKEDAFTQQRLAAINPVLTPRTVLPLYLLITVVFVIVGGCILAQNSKVDEVTIYYQDCMTNATSSWSDIPSEHWQFVFHKYKTYNTAPQWRFVDDESDDFTKQRGTCQIRFTTPSDMKNNVYLNYVLEKFAANHRRYVLSFSEDQIRGEDASYETVHDATGINCKPLSKNADGKIYYPCGLIANSMFNDTFPLQLTNVGDTSNNYSLTNKGINWESDKKRYKKTKYNYTQIAPPPYWEKMYPDGYNETNIPDIQDWEEFQNWMRPGAFDKITKLIRINKNDTLPAGEYQLDIGLHWPVLEFNGKKGIYLTHGSHLGGRNPFLGIVYLIGGCICAAMALILLTFWLFGGRKIADASSLSWNMK [A83T] | disrupting interaction strength |
| MVNFDLGQVGEVFRRKDKGAIVSGDNPEEEEDVDASEFEEDEVKPVRTKNRRPKEDAFTQQRLAAINPVLTPRTVLPLYLLIAVVFVIVGGCILAQNSKVDEVTIYYQDAMTNATSSWSDIPSEHWQFVFHKYKTYNTAPQWRFVDDESDDFTKQRGTCQIRFTTPSDMKNNVYLNYVLEKFAANHRRYVLSFSEDQIRGEDASYETVHDATGINCKPLSKNADGKIYYPCGLIANSMFNDTFPLQLTNVGDTSNNYSLTNKGINWESDKKRYKKTKYNYTQIAPPPYWEKMYPDGYNETNIPDIQDWEEFQNWMRPGAFDKITKLIRINKNDTLPAGEYQLDIGLHWPVLEFNGKKGIYLTHGSHLGGRNPFLGIVYLIGGCICAAMALILLTFWLFGGRKIADASSLSWNMK [C110A] | disrupting interaction strength |
| MVNFDLGQVGEVFRRKDKGAIVSGDNPEEEEDVDASEFEEDEVKPVRTKNRRPKEDAFTQQRLAAINPVLTPRTVLPLYLLIAVVFVIVGGCILAQNSKVDEVTIYYQDCMTNATSSWSDIPSEHWQFVFHKYKTYNTAPQWRFVDDESDDFTKQRGTCQIRFTTPSDMKNNVYLNYVLEKFAANHRRYVLSFSEDQIRGEDASYETVHDATGINCKPLSKNADGKIYYPAGLIANSMFNDTFPLQLTNVGDTSNNYSLTNKGINWESDKKRYKKTKYNYTQIAPPPYWEKMYPDGYNETNIPDIQDWEEFQNWMRPGAFDKITKLIRINKNDTLPAGEYQLDIGLHWPVLEFNGKKGIYLTHGSHLGGRNPFLGIVYLIGGCICAAMALILLTFWLFGGRKIADASSLSWNMK [C231A] | decreasing interaction strength |
| MVNFDLGQVGEVFRRKDKGAIVSGDNPEEEEDVDASEFEEDEVKPVRTKNRRPKEDAFTQQRLAAINPVLTPRTVLPLYLLIAVVFVIVGGCILAQNSKVDEVTIYYQDCMTNATSSWSDIPSEHWQFVFHKYKTYNTAPQWRFVDDESDDFTKQRGTCQIRFTTPSDMKNNVYLNYVLEKFAANHRRYVLSFSEDQIRGEDASYETVHDATGINCKPLSKNADGKIYYPCGLIANLMFNDTFPLQLTNVGDTSNNYSLTNKGINWESDKKRYKKTKYNYTQIAPPPYWEKMYPDGYNETNIPDIQDWEEFQNWMRPGAFDKITKLIRINKNDTLPAGEYQLDIGLHWPVLEFNGKKGIYLTHGSHLGGRNPFLGIVYLIGGCICAAMALILLTFWLFGGRKIADASSLSWNMK [S237L] | disrupting interaction strength |
| MVNFDLGQVGEVFRRKDKGAIVSGDNPEEEEDVDASEFEEDEVKPVRTKNRRPKEDAFTQQRLAAINPVLTPRTVLPLYLLIAVVFVIVGGCILAQNSKVDEVTIYYQDCMTNATSSWSDIPSEHWQFVFHKYKTYNTAPQWRFVDDESDDFTKQRGTCQIRFTTPSDMKNNVYLNYVLEKFAANHRRYVLSFSEDQIRGEDASYETVHDATGINCKPLSKNADGKIYYPCGLIANSMFNDTFPLQLTNVGDTSNNYSLTNKGINWESDKKRYKKTKYNYTQIAPPPYWEKMYPDGYNETNIPDIQDWEEFQNWMRPGAFDKITKLIRINKNDTLPAGEYQLDIGLHWPVLEFNGKKGIYLTHGSHLGGRNPFLGIVYLIGGCICAAMALILLTFWLFGGRKIVDASSLSWNMK [A404V] | disrupting interaction strength |

Results, then the variant that gave them:

| effect of a mutation on the interaction | Variant |
| --- | --- |
| disrupting interaction strength | MVNFDLGQVGEVFRRKDKGAIVSGDNPEEEEDVDASEFEEDEVKPVRTKNRRPKEDAFTQQRLAAINPVLTPRTVLPLYLLIAVVFVIVGGCILAQNSKVDEVTIYYQDCMTNATSSWSDIPSEHWQFVFHKYKTYNTAPQWRFVDDESDDFTKQRGTAQIRFTTPSDMKNNVYLNYVLEKFAANHRRYVLSFSEDQIRGEDASYETVHDATGINCKPLSKNADGKIYYPCGLIANSMFNDTFPLQLTNVGDTSNNYSLTNKGINWESDKKRYKKTKYNYTQIAPPPYWEKMYPDGYNETNIPDIQDWEEFQNWMRPGAFDKITKLIRINKNDTLPAGEYQLDIGLHWPVLEFNGKKGIYLTHGSHLGGRNPFLGIVYLIGGCICAAMALILLTFWLFGGRKIADASSLSWNMK [C159A] |
| disrupting interaction strength | MVNFDLGQVGEVFRRKDKGAIVSGDNPEEEEDVDASEFEEDEVKPVRTKNRRPKEDAFTQQRLAAINPVLTPRTVLPLYLLIAVVFVIVGGCILAQNSKVDEVTIYYQDCMTNATSSWSDIPSEHWQFVFHKYKTYNTAPQWRFVDDESDDFTKQRGTCQIRFTTPSDMKNNVYLNYVLEKFAANHRRYVLSFSEDQIRGEDASYETVHDATGINAKPLSKNADGKIYYPCGLIANSMFNDTFPLQLTNVGDTSNNYSLTNKGINWESDKKRYKKTKYNYTQIAPPPYWEKMYPDGYNETNIPDIQDWEEFQNWMRPGAFDKITKLIRINKNDTLPAGEYQLDIGLHWPVLEFNGKKGIYLTHGSHLGGRNPFLGIVYLIGGCICAAMALILLTFWLFGGRKIADASSLSWNMK [C216A] |
| disrupting interaction strength | MVNFDLGQVGEVFRRKDKGAIVSGDNPEEEEDVDASEFEEDEVKPVRTKNRRPKEDAFTQQRLAAINPVLTPRTVLPLYLLIAVVFVIVGGCILAQNSKVDEVTIYYQDCMTNATSSWSDIPSEHWQFVFHKYKTYNTAPQWRFVDDESDDFTKQRGTCQIRFTTPSDMKNNVYLNYVLEKFAANHRRYVLSFSEDQIRGEDASYETVHDATGINCKPLSKNADGKIYYPCGLIANSMFNDTFPLQLTNVGDTSNNYSLTNKGINWESDKKRYKKTKYNYTQIAPPPYWEKMYPDGYNETNIPDIQDWEEFQNWMRPGAFDKITKLIRINKNDTLPAGEYQLDIGLHWPVLEFNGKKGIYLTHGSHLGGRNPFLEIVYLIGGCICAAMALILLTFWLFGGRKIADASSLSWNMK [G375E] |
